Laboratory results: PMC6332120

Target: thioredoxin glutathione reductase (TGR) from Mesocestoides vogae (Mesocestoides vogae (endogenous in tetrathyridium larvae))
Experiment: SEC; 25%-50% ammonium sulfate fraction of the larval extract, dialysed against PBS, on HiLoad 16/600 Superdex 200 pg; TR and GR activities traced in the fractions

thioredoxin glutathione reductase (TGR) from Mesocestoides vogae (enzyme)
stoichiometry N: 2
